Self-cleavage data for 56 variants are collected here from the RNAGym collection of RNA variant scans (doi:10.7554/elife.90254).

B1: LINE1-mini (parent)
chain: GGCAGAGCUCAACACAGCGUGGCAAAGUGGCUGUGGCUAGACUGCC

The variants in the data set derive from B1. The experiment in a line: self-cleavage, relative activity (ratio to wild type); higher = more cleavage; in vitro, sequencing; the parent is a self-cleaving ribozyme.
As for GACAGAGCUCAACACAGCGUGGUAAAGUGGCUGUGGCUAGACUGCC [G2A C23U], the self-cleavage was 2.33.

Turning to GACAGAGCUCAACACAGCGUGGGAAAGUGGCUGUGGCUAGACUGCC [G2A C23G], the self-cleavage worked out at 0.4.

Take GACAGAGCUCAACACAGCGUGGCAAAGUGGUUGUGGCUAGACUGCC [G2A C31U]: the self-cleavage worked out at 0.25.

Take GACAGAGCUCAACACAGCGUGGCAAAGUGGAUGUGGCUAGACUGCC [G2A C31A]: the self-cleavage was found to be 0.23.

With GACAGAGCUCAACACAGCGUGGCAAAGUGGGUGUGGCUAGACUGCC [G2A C31G], the self-cleavage was 0.14.

For GACAGAGCUCAACACAGCGUGGCACAGUGGCUGUGGCUAGACUGCC [G2A A25C], the self-cleavage is 0.62.

In the case of GACAGAGCUCAACACAGCGUGGCAUAGUGGCUGUGGCUAGACUGCC [G2A A25U], the self-cleavage was 0.65.

On to GACAGAGCUCAACACAGCGUGGCAGAGUGGCUGUGGCUAGACUGCC [G2A A25G], for which the self-cleavage worked out at 0.23.

Turning to GACAGAGCUCAAGACAGCGUGGCAAAGUGGCUGUGGCUAGACUGCC [G2A C13G], the self-cleavage came out at 0.45.

Turning to GACAGAGCUCAAAACAGCGUGGCAAAGUGGCUGUGGCUAGACUGCC [G2A C13A], the self-cleavage was found to be 0.36.

For GACAGAGCUCAAUACAGCGUGGCAAAGUGGCUGUGGCUAGACUGCC [G2A C13U], the self-cleavage is 0.32.

On to GACAGAGCUCAACACAGCGUGGCAAACUGGCUGUGGCUAGACUGCC [G2A G27C], for which the self-cleavage came to 0.72.

Take GACAGAGCUCAACACAGCGUGGCAAAUUGGCUGUGGCUAGACUGCC [G2A G27U]: the self-cleavage is 0.75.

As for GACAGAGCUCAACACAGCGUGGCAAAAUGGCUGUGGCUAGACUGCC [G2A G27A], the self-cleavage is 0.66.

As to GACAGAGCUCAACACAGCGUGGCAAAGUGUCUGUGGCUAGACUGCC [G2A G30U], the self-cleavage was 1.4.

GACAGAGCUCAACACAGCGUGGCAAAGUGACUGUGGCUAGACUGCC [G2A G30A]: the self-cleavage was 1.67.

GACAGAGCUCAACACAGCGUGGCAAAGUGCCUGUGGCUAGACUGCC [G2A G30C]: the self-cleavage came out at 0.51.

Turning to GACAGAGCUGAACACAGCGUGGCAAAGUGGCUGUGGCUAGACUGCC [G2A C10G], the self-cleavage was determined as 0.11.

GACAGAGCUUAACACAGCGUGGCAAAGUGGCUGUGGCUAGACUGCC [G2A C10U]: the self-cleavage came to 0.41.

Take GACAGAGCUAAACACAGCGUGGCAAAGUGGCUGUGGCUAGACUGCC [G2A C10A]: the self-cleavage was found to be 0.07.

Take GACAGAGCUCAACACAGCGUGGCCAAGUGGCUGUGGCUAGACUGCC [G2A A24C]: the self-cleavage was 1.16.

Consider GACAGAGCUCAACACAGCGUGGCUAAGUGGCUGUGGCUAGACUGCC [G2A A24U], for which the self-cleavage came out at 0.86.

Consider GACAGAGCUCAACACAGCGUGGCGAAGUGGCUGUGGCUAGACUGCC [G2A A24G], for which the self-cleavage is 1.04.

In the case of GACAGAGCUCAACACAGCGUGGCAAAGUGGCUGUGGCUAGAUUGCC [G2A C42U], the self-cleavage amounted to 0.44.

Regarding GACAGAGCUCAACACAGCGUGGCAAAGUGGCUGUGGCUAGAAUGCC [G2A C42A], the self-cleavage worked out at 0.36.

For the variant GACAGAGCUCAACACAGCGUGGCAAAGUGGCUGUGGCUAGAGUGCC [G2A C42G], the self-cleavage was 0.34.

As for UGCAGAGCUCAACACAGCGGGGCAAAGUGGCUGUGGCUAGACUGCC [G1U U20G], the self-cleavage is 0.16.

In the case of UGCAGAGCUCAACACAGCGUGGCAAAGUGGCUGUGGCUAGACCGCC [G1U U43C], the self-cleavage turned out to be 0.06.

With UGCAGAGCUCAACACAGCGUGGCAAAGUGGCUGUGGCUAGACAGCC [G1U U43A], the self-cleavage was found to be 0.05.

With UGCAGAGCUCAACACAGCGUGGCAAAGUGGCUGUGGCUAGACGGCC [G1U U43G], the self-cleavage amounted to 0.07.

With UGCAGAGCUCAACACAGCGUGGCAAAGUGGCUGUGGCCAGACUGCC [G1U U38C], the self-cleavage was determined as 0.2.

With UGCAGAGCUCAACACAGCGUGGCAAAGUGGCUGUGGCGAGACUGCC [G1U U38G], the self-cleavage amounted to 0.03.

As to UGCAGAGCUCAACACAGCGUGGCAAAGUGGCUGUGGCAAGACUGCC [G1U U38A], the self-cleavage is 0.13.

Consider GAAAGAGCUCAACACAGCGUGGCAAAGUGGCUGUGGCUAGACUGCC [G2A C3A], for which the self-cleavage came to 1.93.

Take GAUAGAGCUCAACACAGCGUGGCAAAGUGGCUGUGGCUAGACUGCC [G2A C3U]: the self-cleavage is 0.9.

For the variant GAGAGAGCUCAACACAGCGUGGCAAAGUGGCUGUGGCUAGACUGCC [G2A C3G], the self-cleavage worked out at 0.76.

On to GACAGAGCUCAACACAGCGUAGCAAAGUGGCUGUGGCUAGACUGCC [G2A G21A], for which the self-cleavage was 2.98.

On to GACAGAGCUCAACACAGCGUUGCAAAGUGGCUGUGGCUAGACUGCC [G2A G21U], for which the self-cleavage is 0.89.

Consider GACAGAGCUCAACACAGCGUCGCAAAGUGGCUGUGGCUAGACUGCC [G2A G21C], for which the self-cleavage stood at 0.46.

In the case of UGCAGAGCUCAACACAGCGUGGCAAAGGGGCUGUGGCUAGACUGCC [G1U U28G], the self-cleavage was 0.2.

As for UGCAGAGCUCAACACAGCGUGGCAAAGAGGCUGUGGCUAGACUGCC [G1U U28A], the self-cleavage was determined as 0.15.

As for UGCAGAGCUCAACACAGCGUGGCAAAGCGGCUGUGGCUAGACUGCC [G1U U28C], the self-cleavage was 0.24.

GACAGAGCUCUACACAGCGUGGCAAAGUGGCUGUGGCUAGACUGCC [G2A A11U]: the self-cleavage is 0.12.

With GACAGAGCUCCACACAGCGUGGCAAAGUGGCUGUGGCUAGACUGCC [G2A A11C], the self-cleavage worked out at 0.05.

On to GACAGAGCUCGACACAGCGUGGCAAAGUGGCUGUGGCUAGACUGCC [G2A A11G], for which the self-cleavage was 0.08.

Regarding GACAGAGCUCACCACAGCGUGGCAAAGUGGCUGUGGCUAGACUGCC [G2A A12C], the self-cleavage amounted to 0.06.

Regarding GACAGAGCUCAGCACAGCGUGGCAAAGUGGCUGUGGCUAGACUGCC [G2A A12G], the self-cleavage amounted to 0.14.

In the case of GACAGAGCUCAUCACAGCGUGGCAAAGUGGCUGUGGCUAGACUGCC [G2A A12U], the self-cleavage was determined as 0.41.

Turning to GACAGAGCUCAACAAAGCGUGGCAAAGUGGCUGUGGCUAGACUGCC [G2A C15A], the self-cleavage was 0.31.

Regarding GACAGAGCUCAACAGAGCGUGGCAAAGUGGCUGUGGCUAGACUGCC [G2A C15G], the self-cleavage is 0.05.

Regarding GACAGAGCUCAACAUAGCGUGGCAAAGUGGCUGUGGCUAGACUGCC [G2A C15U], the self-cleavage worked out at 0.5.

Turning to GACAGAGCUCAACACAGCGUGGCAAAGUGGCUGUGGCUAGACUGAC [G2A C45A], the self-cleavage is 1.08.

As for GACAGAGCUCAACACAGCGUGGCAAAGUGGCUGUGGCUAGACUGGC [G2A C45G], the self-cleavage turned out to be 0.75.

In the case of GACAGAGCUCAACACAGCGUGGCAAAGUGGCUGUGGGUAGACUGCC [G2A C37G], the self-cleavage is 0.13.

In the case of GACAGAGCUCAACACAGCGUGGCAAAGUGGCUGUGGUUAGACUGCC [G2A C37U], the self-cleavage turned out to be 0.28.

On to GACAGAGCUCAACACAGCGUGGCAAAGUGGCUGUGGAUAGACUGCC [G2A C37A], for which the self-cleavage is 0.35.
